The data set concerns Escherichia coli TOP10. The experiment in a line: shrunken log2 fold change of peptide-encoding DNA abundance (4.5 h post-induction vs induction); higher = less antimicrobial activity (less host growth inhibition). The note with it: time post-induction: 4.5 h; library: site-saturation at positions 5, 18, 19, 20.
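Note: peptides expressed intracellularly from a pBAD plasmid library in pooled LB shake-flask culture, induced with 0.3% L-arabinose, DNA abundance read by NGS, three biological replicates, DESeq2 with apeglm shrinkage.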

For RRIRLRPPRLPRPRPRPQLQPRP, the “shrunken log2 fold change” value came to 0.037.

Take RRIRRRPPRLPRPRPRPMETPRP: the “shrunken log2 fold change” value was -0.12.

As for RRIRKRPPRLPRPRPRPERFPRP, the “shrunken log2 fold change” value is -0.0391.

Take RRIRMRPPRLPRPRPRPDKAPRP: the “shrunken log2 fold change” value was -0.041.

As to RRIRCRPPRLPRPRPRPSNEPRP, the “shrunken log2 fold change” value is -0.379.

As to RRIRKRPPRLPRPRPRPDNRPRP, the “shrunken log2 fold change” value worked out at 0.00592.

On to RRIRPRPPRLPRPRPRPPFIPRP, for which the “shrunken log2 fold change” value was -0.0606.

In the case of RRIRLRPPRLPRPRPRPGFLPRP, the “shrunken log2 fold change” value came to 0.0856.

For the sequence RRIRQRPPRLPRPRPRPILFPRP, the “shrunken log2 fold change” value was 0.0255.

Take RRIRDRPPRLPRPRPRPWPWPRP: the “shrunken log2 fold change” value is -0.0837.

On to RRIRWRPPRLPRPRPRPKNNPRP, for which the “shrunken log2 fold change” value is -0.136.

For RRIRQRPPRLPRPRPRPAPNPRP, the “shrunken log2 fold change” value was 0.561.

With RRIRWRPPRLPRPRPRPEGYPRP, the “shrunken log2 fold change” value came to 0.607.

In the case of RRIRNRPPRLPRPRPRPQQTPRP, the “shrunken log2 fold change” value was -0.0918.

On to RRIRRRPPRLPRPRPRPMLFPRP, for which the “shrunken log2 fold change” value was determined as 0.263.

In the case of RRIRQRPPRLPRPRPRPTHYPRP, the “shrunken log2 fold change” value was determined as 0.975.

In the case of RRIRKRPPRLPRPRPRPIGAPRP, the “shrunken log2 fold change” value came out at 0.479.

As for RRIRKRPPRLPRPRPRPHLDPRP, the “shrunken log2 fold change” value is 0.00976.

RRIRDRPPRLPRPRPRPMRQPRP: the “shrunken log2 fold change” value was found to be 0.0681.

RRIRTRPPRLPRPRPRPKQVPRP: the “shrunken log2 fold change” value is -0.0584.

RRIRCRPPRLPRPRPRPMDHPRP: the “shrunken log2 fold change” value was -0.904.

Regarding RRIRQRPPRLPRPRPRPDSFPRP, the “shrunken log2 fold change” value was found to be 0.0109.

As to RRIRWRPPRLPRPRPRPLRGPRP, the “shrunken log2 fold change” value was determined as 1.01.

On to RRIRYRPPRLPRPRPRPDCCPRP, for which the “shrunken log2 fold change” value was -0.115.

Take RRIRPRPPRLPRPRPRPPLNPRP: the “shrunken log2 fold change” value stood at 0.275.

Take RRIRTRPPRLPRPRPRPRVVPRP: the “shrunken log2 fold change” value was 1.87.

RRIRDRPPRLPRPRPRPAHKPRP: the “shrunken log2 fold change” value was -0.0546.

Turning to RRIRKRPPRLPRPRPRPDVTPRP, the “shrunken log2 fold change” value is 1.47.

Regarding RRIRERPPRLPRPRPRPQFTPRP, the “shrunken log2 fold change” value was -0.472.

Consider RRIRQRPPRLPRPRPRPRFRPRP, for which the “shrunken log2 fold change” value was determined as 0.0281.

Turning to RRIRCRPPRLPRPRPRPHQQPRP, the “shrunken log2 fold change” value was 0.14.

Regarding RRIRHRPPRLPRPRPRPPWYPRP, the “shrunken log2 fold change” value is -0.232.

On to RRIRMRPPRLPRPRPRPFSGPRP, for which the “shrunken log2 fold change” value is -0.0134.

RRIRVRPPRLPRPRPRPKCVPRP: the “shrunken log2 fold change” value was -0.0921.

Turning to RRIRCRPPRLPRPRPRPMGEPRP, the “shrunken log2 fold change” value is 0.0249.

As to RRIRHRPPRLPRPRPRPLVSPRP, the “shrunken log2 fold change” value is 0.0121.

As to RRIRRRPPRLPRPRPRPLFEPRP, the “shrunken log2 fold change” value came to 0.245.

On to RRIRTRPPRLPRPRPRPHVHPRP, for which the “shrunken log2 fold change” value is -0.511.

Take RRIRKRPPRLPRPRPRPKIFPRP: the “shrunken log2 fold change” value was 0.0692.

As for RRIRFRPPRLPRPRPRPCKVPRP, the “shrunken log2 fold change” value came to 0.0595.

As to RRIRERPPRLPRPRPRPHSHPRP, the “shrunken log2 fold change” value is -0.269.

On to RRIRHRPPRLPRPRPRPWLEPRP, for which the “shrunken log2 fold change” value is -0.0848.

Turning to RRIRNRPPRLPRPRPRPDSHPRP, the “shrunken log2 fold change” value was -0.0854.

With RRIRARPPRLPRPRPRPKTHPRP, the “shrunken log2 fold change” value was 0.227.

For the sequence RRIRQRPPRLPRPRPRPHEVPRP, the “shrunken log2 fold change” value was -0.0426.

On to RRIRLRPPRLPRPRPRPREFPRP, for which the “shrunken log2 fold change” value amounted to 0.463.

As for RRIRCRPPRLPRPRPRPMSFPRP, the “shrunken log2 fold change” value is -0.29.

For the sequence RRIRSRPPRLPRPRPRPYPMPRP, the “shrunken log2 fold change” value was -0.035.

As to RRIRNRPPRLPRPRPRPTHLPRP, the “shrunken log2 fold change” value worked out at 0.109.

With RRIRTRPPRLPRPRPRPFTWPRP, the “shrunken log2 fold change” value is -0.308.

With RRIRTRPPRLPRPRPRPENDPRP, the “shrunken log2 fold change” value is -0.0847.

On to RRIRVRPPRLPRPRPRPIVFPRP, for which the “shrunken log2 fold change” value is 0.0602.

Consider RRIRFRPPRLPRPRPRPLFSPRP, for which the “shrunken log2 fold change” value is -0.376.

As for RRIRVRPPRLPRPRPRPYHRPRP, the “shrunken log2 fold change” value is -2.18.

Consider RRIRARPPRLPRPRPRPVLLPRP, for which the “shrunken log2 fold change” value was 0.122.

Regarding RRIRERPPRLPRPRPRPMDRPRP, the “shrunken log2 fold change” value is 0.0196.

On to RRIRYRPPRLPRPRPRPHSDPRP, for which the “shrunken log2 fold change” value is -0.0292.

RRIRKRPPRLPRPRPRPTCIPRP: the “shrunken log2 fold change” value was -0.176.

For the sequence RRIRLRPPRLPRPRPRPMPPPRP, the “shrunken log2 fold change” value was determined as 0.15.

As to RRIRGRPPRLPRPRPRPGAMPRP, the “shrunken log2 fold change” value came out at 1.25.

RRIRKRPPRLPRPRPRPHPMPRP: the “shrunken log2 fold change” value was determined as 0.224.

On to RRIRCRPPRLPRPRPRPKIKPRP, for which the “shrunken log2 fold change” value is -0.287.

RRIRARPPRLPRPRPRPRITPRP: the “shrunken log2 fold change” value came out at 0.173.

Take RRIRHRPPRLPRPRPRPVSLPRP: the “shrunken log2 fold change” value is -0.0931.

Consider RRIRLRPPRLPRPRPRPGDQPRP, for which the “shrunken log2 fold change” value was 0.0619.

As for RRIRDRPPRLPRPRPRPSPRPRP, the “shrunken log2 fold change” value was 0.00292.

On to RRIRVRPPRLPRPRPRPWCSPRP, for which the “shrunken log2 fold change” value was -0.638.

Consider RRIRARPPRLPRPRPRPAFVPRP, for which the “shrunken log2 fold change” value was 0.315.

With RRIRVRPPRLPRPRPRPIRAPRP, the “shrunken log2 fold change” value was -0.109.

As to RRIRRRPPRLPRPRPRPKDAPRP, the “shrunken log2 fold change” value was 0.0371.

Turning to RRIRWRPPRLPRPRPRPRCTPRP, the “shrunken log2 fold change” value was 0.243.

Consider RRIRTRPPRLPRPRPRPNNQPRP, for which the “shrunken log2 fold change” value is -0.665.

Regarding RRIRIRPPRLPRPRPRPLQAPRP, the “shrunken log2 fold change” value turned out to be 0.0546.

Turning to RRIRSRPPRLPRPRPRPRCPPRP, the “shrunken log2 fold change” value worked out at 0.177.

As for RRIRSRPPRLPRPRPRPEDLPRP, the “shrunken log2 fold change” value is -0.0115.

Turning to RRIRQRPPRLPRPRPRPCINPRP, the “shrunken log2 fold change” value was -0.0449.

As for RRIRERPPRLPRPRPRPHELPRP, the “shrunken log2 fold change” value is -0.0556.

For the sequence RRIRHRPPRLPRPRPRPLIFPRP, the “shrunken log2 fold change” value is -0.38.

As to RRIRARPPRLPRPRPRPIRWPRP, the “shrunken log2 fold change” value was determined as 0.211.

As to RRIRFRPPRLPRPRPRPGPHPRP, the “shrunken log2 fold change” value is 0.305.

For the sequence RRIRCRPPRLPRPRPRPHDLPRP, the “shrunken log2 fold change” value was -0.46.

For RRIRCRPPRLPRPRPRPPGAPRP, the “shrunken log2 fold change” value is 0.678.

For RRIRTRPPRLPRPRPRPQAKPRP, the “shrunken log2 fold change” value was -0.147.

Consider RRIRWRPPRLPRPRPRPMKKPRP, for which the “shrunken log2 fold change” value is -0.0863.

As for RRIRDRPPRLPRPRPRPYHIPRP, the “shrunken log2 fold change” value was -0.107.

With RRIRLRPPRLPRPRPRPINEPRP, the “shrunken log2 fold change” value is -0.0016.

In the case of RRIRARPPRLPRPRPRPAQWPRP, the “shrunken log2 fold change” value amounted to 0.252.

For RRIRSRPPRLPRPRPRPYNRPRP, the “shrunken log2 fold change” value was -0.267.

Turning to RRIRERPPRLPRPRPRPFEIPRP, the “shrunken log2 fold change” value is -0.203.

Regarding RRIRMRPPRLPRPRPRPESCPRP, the “shrunken log2 fold change” value was 3.68.

As for RRIRKRPPRLPRPRPRPHPHPRP, the “shrunken log2 fold change” value amounted to 2.25.

The record behind these values is the supplement of paper PMC9112550, “Optimization of the antimicrobial peptide Bac7 by deep mutational scanning” (BMC Biology, 2022).
